# Target: CXCR4 (Homo sapiens, UniProt P61073)
# Experiment: [125I]-CXCL12 competition binding on membranes from HEK293T cells transiently expressing CXCR4
# Conditions: for affinity to CXCR4: in words; for displacement of specifically bound [125I]-CXCL12: purified ligands, highest Nanobody test concentration 0.5 μM; for Binding (binding efficiency, competition binding with [125I]-CXCL12): screening of Nanobody clone pools
# Description: HEK293T cells were maintained at 37° C. in a humidified 5% CO2, 95% air atmosphere in Dulbecco's modified Eagle's medium (DMEM) containing 2 mM L-glutamine, 50 IU/ml penicillin, 50 μg/ml streptomycin, and 10% (v/v) fetal calf serum. Jurkat cells were cultured in a humidified 5% CO2, 95% air atmosphere in a 1:1 mixture of Dulbecco's modified Eagle's medium (DMEM) and Ham's F12 medium containing 2 mM L-glutamine, 50 IU/ml penicillin, 50 μg/ml streptomycin, and 10% (v/v) fetal calf serum. […] [^125 I]-Labelling— Radiolabeling of Nanobodies with ^125I was performed using the Iodo-gen method (Pierce, Rockford, Ill.) according to the manufacturer's protocol. ^125I-labeled Nanobodies was separated from free iodine (>99%) using a Sephadex G-25 gel filtration column (Amersham Biosciences, Piscataway, N.J.). […] Competition Binding Assays— Membranes from HEK293T cells transiently expressing CXCR3 or CXCR4 were prepared 48 h after transfection as follows. Cells were washed and scraped from the cell culture dishes with ice-cold PBS containing 1 mm EDTA. The scraped cells were pelleted at 1500×g for 10 min at 4° C. The pellet was washed and then resuspended in ice-cold membrane buffer (15 mM Tris, pH 7.5, 1 mM EGTA, 0.3 mM EDTA, and 2 mM MgCl2). The cell suspension was homogenized by 10 strokes at 1200 rpm using a Teflon-glass homogenizer and rotor and further subjected to three freeze-thaw cycles using liquid nitrogen. Membranes were separated by centrifugation at 40,000 g for 25 min at 4° C. The membrane pellet was washed and resuspended in ice-cold Tris-sucrose buffer (20 mM Tris, pH 7.4, and 250 mM sucrose) and frozen in liquid nitrogen. The total protein was determined using a Bradford assay (Bio-Rad). […] Membranes were then harvested over polyethylenimine (0.5%)-treated Whatman GF/C filter plates and washed three times with ice cold binding buffer containing 500 mM NaCl. Plates were counted by liquid scintillation. Inositol Phosphate Accumulation Assay— 24 hours post transfection with pcDNA3.1-CXCR4 and pcDNA1-HA-mG {alpha} qi5 (see Verzijl et al, 2008 supra), 250.000 cells were seeded into 24-wells plates and labelled overnight using inositol-free minimal essential medium supplemented with 1 μCi myo-[2-^3H]-inositol. The next day, the cells were washed once to remove not incorporated myo-[2-^3H]-inositol. […] In agonist experiments, the cells were directly stimulated with test compounds and LiCl (10 mM) in assay buffer for 2 h at 37° C. The stimulation was stopped by aspirating the stimulation medium and adding ice-cold 10 mM formic acid. The accumulated inositol phosphates were isolated by anion exchange chromatography and counted by liquid scintillation. CRE Reporter Gene Assay— HEK239T cells were transfected with pCRE/β-galactosidase (Chen W, Shields T S, Stork P J S, Cone R D (1995) Anal Biochem 226:349-354) and plasmids (pcDEF3 or pcDNA3.1) encoding the indicated receptors. 40,000 transfected cells per well were seeded into 96 well plates and grown in DMEM supplemented with 10% fetal calf serum. The medium was replaced 32 h after transfection by serum-free DMEM supplemented with 0.5% bovine serum albumin and ligands as indicated. […] The β-galactosidase activity was determined by the measurement of absorption at 420 nm with a PowerwaveX340 plate reader (Bio-Tek Instruments Inc., Winooski, Vt.) after incubation with the assay buffer when the OD420 value for forskolin (3 μM) controls reached 0.4-0.6. Chemotaxis Assay— The chemotactic responsiveness of Jurkat 3D cells was assessed using ChemoTx™ plates (Receptor Technologies Ltd., Oxon, UK) in which a upper cell-containing compartment is separated from a lower chemoattractant-containing compartment by a polyvinylpyrollidone-free polycarbonate filter with 5-μm pores. Cells were harvested, washed and resuspended in RPMI containing 0.5% bovine serum albumin and then loaded to 150,000 cells per well in a volume of 25 μl into the upper compartment of the chemotaxis chamber.
# [1] = membranes from HEK293T cells transiently expressing CXCR4, mean ± S.E.M.
# [2] = membranes from HEK293T cells transiently expressing CXCR4
# CXCR4, sequence (P61073 whole entry): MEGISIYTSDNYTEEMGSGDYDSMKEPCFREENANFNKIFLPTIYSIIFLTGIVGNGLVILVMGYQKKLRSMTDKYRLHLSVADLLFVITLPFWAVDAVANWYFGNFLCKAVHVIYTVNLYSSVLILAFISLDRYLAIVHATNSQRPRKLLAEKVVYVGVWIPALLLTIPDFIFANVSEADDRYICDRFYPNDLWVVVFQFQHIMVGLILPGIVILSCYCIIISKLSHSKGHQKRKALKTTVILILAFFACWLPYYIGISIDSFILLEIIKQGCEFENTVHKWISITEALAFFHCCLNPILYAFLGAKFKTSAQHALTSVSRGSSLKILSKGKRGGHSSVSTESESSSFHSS
Molecule,affinity to CXCR4,Displacem. (%) of [125I]-CXCL12 (maximal displacement) [1] [%],"pKi, [125I]-CXCL12 [1]",displacement of specifically bound [125I]-CXCL12,"Binding (binding efficiency, competition binding with [125I]-CXCL12) [2]"
"238D2: Nanobody (VHH) raised against human CXCR4, SEQ ID NO: 238 (protein, Nanobody, Nanobody constructs or fragments thereof) VHH: EVQLVESGGGLVQTGGSLRLSCAASGFTFSSYAMSWVRQAPGKGLEWVSGIKSSGDSTRYAGSVKGRFTISRDNAKNMLYLQMYSLKPEDTAVYYCAKSRVSRTGLYTYDNRGQGTQVTVSS",low nanomolar range,93 ± 5,8.01 ± 0.12,fully displace,++ (++ = 70-100%)
"238D4: Nanobody (VHH) raised against human CXCR4, SEQ ID NO: 239 (protein, Nanobody, Nanobody constructs or fragments thereof) VHH: EVQLMESGGGLVQAGGSLRLSCAASGRTFNNYAMGWFRRAPGKEREFVAAITRSGVRSGVSAIYGDSVKDRFTISRDNAKNTLYLQMNSLKPEDTAVYTCAASAIGSGALRRFEYDYSGQGTQVTVSS",low nanomolar range,–,–,fully displace,++ (++ = 70-100%)
